Patent US9200045B2, “Small molecule-dependent inteins and uses thereof” (President and Fellows of Harvard College, priority 2011, dated 2015)

Key:
Gli1 = experiment: 4-HT-dependent intein splicing in the Gli1 context in HEK293 cells; format: cell-based, human; details: 1 μM 4-HT
Source text: (§1) p3XFlag-CMV-14 (Sigma) vectors with Gli1-intein (2-4 and 3-2), and Gli3T-intein (2-4 and 3-2) sequences were previously described (Yuen et al., 2006). p3XFlag-CMV-14 mCherry-intein (2-4 and 3-2) vectors were constructed by cloning the 2-4 and 3-2 intein sequences into the pRSET-B mCherry vector provided by Professor Roger Tsien (University of California at San Diego). The mCherry-intein 2-4 and mCherry-intein 3-2 sequences were then amplified using oligonucleotides introducing a 5′ EcoRI site and a 3′ BamHI site and ligated into EcoRI- and BamHI-digested p3XFlag-CMV-14 vector. 30R3-1 intein sequence and 37R3-2 intein sequence were amplified using the following oligonucleotides compatible with mCherry, Gli1, or Gli3 contexts.

Gli3T = experiment: 4-HT-dependent intein splicing in the Gli3T context in HEK293 cells; format: cell-based, human; details: 1 μM 4-HT
Source text: as §1

GFP [1] = details: yeast
GFP [2] = details: HEK293, 37° C.
mCherry = experiment: 4-HT-dependent intein splicing in the mCherry context in HEK293 cells; format: cell-based, human; details: for spliced mCherry protein: HEK293, 37° C., 1 μM 4-HT
Source text: as §1
HEK293 cells were grown in 10 cm dishes or 6-well plates and transfected with relevant mammalian vectors using Effectene. After growth in the absence of 4-HT or in the presence of 1 μM 4-HT for 24 hours, cells were trypsinized and resuspended in 500 μL of phosphate buffered saline with 1% FBS and 75 U/mL DNase (New England Biolabs). Cell fluorescence analysis was carried out on a BD LSRII cell analyzer.

[3] = system: GFP, mCherry, Gli1, and Gli3T; experiment: Intein splicing across all four proteins tested in mammalian cells; details: no 4-HT
Method: Western blots were performed using Nu-PAGE 12% Bis-Tris gels (Invitrogen) in 3-(Nmorpholino) propanesulfonic acid (MOPS)-sodium dodecyl sulfate (SDS) buffer (Invitrogen). SDSpolyacrylamide gel electrophoresis (PAGE) and Western blotting were performed using standard protocols. Gels were transferred onto polyvinylidene fluoride (PDVF) membranes (Millipore). Western blots were processed using a mouse anti-FLAG antibody (Sigma) as the primary antibody and a secondary Alexa Fluor 800-conjugated goat anti-mouse antibody (Li-cor Biosciences), then visualized and quantitated using an Odyssey imager (Li-cor Biosciences). […]
The inteins were inserted into mCherry, a red fluorescent protein, in place of Thr 113, the residue in mCherry that corresponds to the Cys residue used for intein insertion in GFP. As in the case of GFP, this placement positions the intein near the mid-point of a β-strand and abolishes mCherry fluorescence until splicing takes place (vide infra). […]
The splicing characteristics of the newly evolved inteins was investigated in the contexts of two additional mammalian proteins, Gli1 and Gli3T. […] The resulting constructs were introduced into HEK293 cells and splicing was evaluated by Western blot as described above.

[4] = HEK293, at 24 hours or 12 hours

B1: 3-2: previously evolved parental 4-HT-dependent intein, derived from the 2-4 intein (protein)
chain: CLAEGTRIFDPVTGTTHRIEDVVDGRKPIHVVAVAKDGTLLARPVVSWFDQGTRDVIGLRIAGGAIVWATPDHKVLTEYGWRAAGELRKGDRVAGPGGSGNSLALSLTADQMVSALLDAEPPILYSEYDPTSPFSEASMMGLLTNLADRELVHMINWAKRVPGFVDLTLHDQAHLLECAWLEILMIGLVWRSMEHPGKLLFAPNLLLDRNQGKCVEGMVEIFDMLLATSSRFRMMNLQGEEFVCLKSIILLNSGVYTFLSSTLKSLEEKDHIHRALDKITDTLIHLMAKAGLTLQQQHQRLAQLLLILSHIRHMSNKGMEHLYSMKYTNVVPLYDLLLEMLDAHRLHAGGSGASRVQAFADALDDKFLHDMLAEELRYSVIREVLPTRRARTFDLEVEELHTLVAEGVVVHNC
- Gli1 protein spliced (Gli1; HEK293, after 12 hours): 22%
- Gli1 protein spliced (Gli1; HEK293, after 24 hours): 32%
- spliced Gli3T protein (Gli3T; HEK293, after 12 hours): 10%
- spliced Gli3T protein (Gli3T; HEK293, after 24 hours): 18%
- splicing in the absence of 4-HT (background splicing) (GFP [1]; 30° C., after 24 hours, no 4-HT): 15%
- spliced protein (GFP [1]; 37° C., 1 hour after 4-HT treatment): did not generate significant amounts of spliced protein
- fraction of the total spliced GFP after 24 hours that was present after 12 hours (GFP [2]; 1 μM 4-HT): 45%
- spliced GFP (GFP [2]; after 24 hours, 1 μM 4-HT): 33%

B2: 37R3-2: evolved 4-HT-dependent intein, clone from 37° C. evolution, Round 3 (protein)
chain: CLAEGTRIFDPVTGTTHRIEDVVDGRKPIHVVAAAKDGTLLARPVVSWFDQGTRDVIGLRIAGGATVWATPDHKVLTEYGWRAAGELRKGDRVAGPGGSGNSLALSLTADQMVSALLDAEPPILYSEYDPTSPFSEASMMGLLTNLADRELVHMINWAKRVPGFVDLTLHDQAHLLERAWLEILMIGLVWRSMEHPGKLLFAPNLLLDRNQGKCVEGMVEIFDMLLATSSRFRMMNLQGEEFVCLKSIILLNSGVYTFLSSTLKSLEEKDHIHRALDKITDTLIHLMAKAGLTLQQQHQRLAQLLLILSHIRHMSNKGMEHLYSMKYKNVVPLYDLLLEMLDAHRLHAGGSGASRVQAFADALDDKFLHDMLAEELRYSVIREVLPTRRARTFDLEVEELHTLVAEGVVVHNC
- spliced mCherry protein (mCherry; after 12 hours): 43%
- spliced mCherry protein (mCherry; after 24 hours): 72%
- fold higher percentage of spliced mCherry than that of 3-2 intein (mCherry; [4]): ~3 fold
- fold higher percentage of spliced mCherry than that of the 2-4 intein (mCherry; [4]): ~5 fold
- background splicing in the absence of 4-HT (GFP [2]; GFP context, no 4-HT): not observed
- fold higher GFP splicing efficiency than the original 2-4 intein (GFP [2]; after 24 hours, 1 μM 4-HT): 3.8 fold
- fold higher GFP splicing efficiency than the original 3-2 intein (GFP [2]; after 24 hours, 1 μM 4-HT): 2.2 fold
- spliced GFP (GFP [2]; after 24 hours, 1 μM 4-HT): 73%
- background splicing in the absence of 4-HT [3]: very low and often was not detectable
